We go through 13 molecules from paper PMC3287200 (Nucleic Acids Research, 2011).

Substitutions are numbered along the chain they refer to. Names may count otherwise.

Data set [1] deals with T1, BsHfq-His (Bacillus subtilis, UniProt O31796 1-73).
T1 sequence: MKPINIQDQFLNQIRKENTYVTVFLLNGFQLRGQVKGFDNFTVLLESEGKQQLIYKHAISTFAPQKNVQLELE
Description: UV cross-linking.

For data set [2], the target named is T2, BsHfq-His N40A (Bacillus subtilis, UniProt O31796 1-73, N40A).
T2 sequence: T1 sequence with N40A
Description: EMSA.

The target of data set [3] is T3, BsHfq-His F41A (Bacillus subtilis, UniProt O31796 1-73, F41A).
T3 sequence: T1 sequence with F41A
Description: EMSA.

For data set [4], the target named is T4, BsHfq-His R32A (Bacillus subtilis, UniProt O31796 1-73, R32A).
T4 sequence: T1 sequence with R32A
Description: EMSA.

Data set [5] deals with T5, BsHfq-His F24A (Bacillus subtilis, UniProt O31796 1-73, F24A).
T5 sequence: T1 sequence with F24A
Description: EMSA.

Data set [6] concerns the target T6, BsHfq-His F29A (Bacillus subtilis, UniProt O31796 1-73, F29A).
T6 sequence: T1 sequence with F29A
Description: EMSA.

Data set [7] deals with T7, BsHfq-His Q30A (Bacillus subtilis, UniProt O31796 1-73, Q30A).
T7 sequence: T1 sequence with Q30A
Description: EMSA.

Data set [8] deals with T1, BsHfq-His. Description: UV cross-linking. The source holds these as a separate data set.
Data set [9] concerns the target T1, BsHfq-His. Description: EMSA.
Data set [10] concerns the target T8, BsHfq (GST removed) (Bacillus subtilis, UniProt O31796 1-73).
T8 sequence: T1 sequence
Description: EMSA.

Data set [11] concerns the molecule itself. Description: SEC + other: SDS-PAGE.

For GGGCGAAUUCUAGAGAGAGAUUAGAUCCUGUCCGCGGCUAAAGCU (structured_RNA) [49R], the binding result in [1] is reported as “binds”; in data set [2], “binds”; in [3] it was “binds”; in data set [4], “no binding”; in data set [5], “no binding”; in data set [6], “no binding”. Besides, in data set [7], the binding result is given as “no binding”.
For GGGCGAAUUCUAGAGAAAGAUUAGAUCCUGUCCGCGGCUAAAGCU (ssRNA) [49R-A], the binding result in data set [8] is “binds”.

B1: 28f (ssRNA)
RNA: GGGACACAAUGGACGAGGGAUUUGGGUGAUAUUUUUAGUCGGUCAUAACGGCCGACAUGAGAG
On to B1, for which the binding result in data set [9] is “no binding”.
For the molecule AUUUUUG (ssRNA) [AU5G], in data set [10], the binding result is “no binding”.

B2: BsHfq-His H57A (natural protein, Bacillus subtilis)
chain: T1 sequence with H57A
For the molecule B2, the “ability to form hexameric structure, percent of wild-type” value in data set [11] was ~30 % of wild-type.

B3: BsHfq-His N40A (natural protein, Bacillus subtilis)
chain: T1 sequence with N40A
As to B3, the “stoichiometry N” value in data set [11] came to 6.

B4: BsHfq-His R32A (natural protein, Bacillus subtilis)
chain: T1 sequence with R32A
As for B4, the “stoichiometry N” value in [11] worked out at 6.

B5: BsHfq-His K56A (natural protein, Bacillus subtilis)
chain: T1 sequence with K56A
On to B5, for which the “ability to form hexameric structure, percent of wild-type” value in data set [11] is ~60 % of wild-type.

B6: BsHfq-His F24A (natural protein, Bacillus subtilis)
chain: T1 sequence with F24A
With B6, in [11], the “stoichiometry N” value was determined as 6.

B7: BsHfq-His F29A (natural protein, Bacillus subtilis)
chain: T1 sequence with F29A
B7: the “stoichiometry N” value in [11] amounted to 6.

B8: BsHfq-His F41A (natural protein, Bacillus subtilis)
chain: T1 sequence with F41A
As for B8, in data set [11], the “stoichiometry N” value was 6.

B9: BsHfq-His Q30A (natural protein, Bacillus subtilis)
chain: T1 sequence with Q30A
Turning to B9, in [11], the “stoichiometry N” value is 6.

B10: C-terminal 6x His fusion BsHfq, wild type (natural protein, Bacillus subtilis)
chain: T1 sequence
With B10, the “stoichiometry N” value in data set [11] came out at 6.
